Measured values taken from US20150073033A1 (University of Texas, published 2015).
Blank lines part the entries; values can stand above or below the binder they belong to.

What was measured:
[1] = target: T1, endogenous IKKβ (U87/EGFR or U251 cells) (human, UniProt O14920 1-756); assay: IP of PKCζ, anti-IKKβ immunoblot, EGF-treated cells
T1 sequence (looked up): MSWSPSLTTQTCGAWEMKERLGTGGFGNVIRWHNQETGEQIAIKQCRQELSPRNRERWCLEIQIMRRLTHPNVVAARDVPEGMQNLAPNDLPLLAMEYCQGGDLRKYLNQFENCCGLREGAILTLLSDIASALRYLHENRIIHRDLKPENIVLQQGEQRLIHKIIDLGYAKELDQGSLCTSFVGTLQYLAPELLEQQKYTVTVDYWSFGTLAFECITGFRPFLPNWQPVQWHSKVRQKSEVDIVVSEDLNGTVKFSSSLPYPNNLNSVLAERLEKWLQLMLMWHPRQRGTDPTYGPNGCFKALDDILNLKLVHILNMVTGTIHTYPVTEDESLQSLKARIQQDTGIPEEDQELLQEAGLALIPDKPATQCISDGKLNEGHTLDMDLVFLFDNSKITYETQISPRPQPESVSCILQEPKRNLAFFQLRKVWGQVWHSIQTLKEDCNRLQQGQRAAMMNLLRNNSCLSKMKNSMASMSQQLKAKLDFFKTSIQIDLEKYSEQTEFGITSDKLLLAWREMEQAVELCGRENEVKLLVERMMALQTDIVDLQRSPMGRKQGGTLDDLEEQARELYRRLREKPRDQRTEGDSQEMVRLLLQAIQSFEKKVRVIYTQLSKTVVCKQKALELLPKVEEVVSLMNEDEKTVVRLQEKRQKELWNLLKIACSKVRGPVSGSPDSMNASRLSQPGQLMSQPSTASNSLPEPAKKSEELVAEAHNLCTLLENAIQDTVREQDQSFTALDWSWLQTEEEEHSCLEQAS

[2] = target: T2, purified recombinant GST-Bub1 (UniProt O43683 1-1085, limits assumed); assay: GST pull-down, purified recombinant proteins
T2 construct: Bacterially purified; not shown: GST
Description: Nuclei were stained with DAPI (blue). […] A GST pull-down assay was performed.

endogenous Bub1 = endogenous Bub1 (human, UniProt O43683 1-1085); assay: co-IP, HeLa cells
Sequence of endogenous Bub1 (O43683 whole entry): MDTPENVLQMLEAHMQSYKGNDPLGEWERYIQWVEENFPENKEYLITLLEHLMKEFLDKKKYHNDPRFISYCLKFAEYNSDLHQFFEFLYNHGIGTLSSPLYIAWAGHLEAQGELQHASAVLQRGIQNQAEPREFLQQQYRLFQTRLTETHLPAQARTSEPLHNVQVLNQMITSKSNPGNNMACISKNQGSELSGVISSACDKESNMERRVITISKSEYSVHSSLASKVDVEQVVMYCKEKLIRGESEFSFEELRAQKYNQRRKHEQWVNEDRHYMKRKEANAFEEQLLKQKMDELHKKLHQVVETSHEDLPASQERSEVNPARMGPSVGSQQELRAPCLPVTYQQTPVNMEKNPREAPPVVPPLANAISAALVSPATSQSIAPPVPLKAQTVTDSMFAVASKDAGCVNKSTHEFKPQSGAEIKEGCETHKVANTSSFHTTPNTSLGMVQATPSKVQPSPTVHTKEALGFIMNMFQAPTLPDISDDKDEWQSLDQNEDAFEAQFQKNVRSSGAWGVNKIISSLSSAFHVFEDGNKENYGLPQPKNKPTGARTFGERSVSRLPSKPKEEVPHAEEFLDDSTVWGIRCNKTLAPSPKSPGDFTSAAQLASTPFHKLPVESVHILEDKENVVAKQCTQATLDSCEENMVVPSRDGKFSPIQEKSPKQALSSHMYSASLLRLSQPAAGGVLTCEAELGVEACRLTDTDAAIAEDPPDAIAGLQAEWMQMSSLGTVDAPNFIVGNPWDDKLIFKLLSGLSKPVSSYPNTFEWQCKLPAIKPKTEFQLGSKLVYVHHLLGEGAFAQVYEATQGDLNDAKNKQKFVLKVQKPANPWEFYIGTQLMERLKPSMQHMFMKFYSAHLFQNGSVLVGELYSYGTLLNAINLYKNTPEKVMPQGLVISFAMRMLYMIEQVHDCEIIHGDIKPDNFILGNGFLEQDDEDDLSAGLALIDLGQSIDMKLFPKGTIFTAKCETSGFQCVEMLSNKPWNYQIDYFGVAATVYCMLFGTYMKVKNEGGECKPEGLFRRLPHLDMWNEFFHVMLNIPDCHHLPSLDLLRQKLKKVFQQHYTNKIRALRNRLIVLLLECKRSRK

T2 sequence (O43683 whole entry): as above

binding result [1]: no binding
B1: endogenous PKCζ (enzyme, human, UniProt Q05513 1-592, looked up)
chain: MPSRTGPKMEGSGGRVRLKAHYGGDIFITSVDAATTFEELCEEVRDMCRLHQQHPLTLKWVDSEGDPCTVSSQMELEEAFRLARQCRDEGLIIHVFPSTPEQPGLPCPGEDKSIYRRGARRWRKLYRANGHLFQAKRFNRRAYCGQCSERIWGLARQGYRCINCKLLVHKRCHGLVPLTCRKHMDSVMPSQEPPVDDKNEDADLPSEETDGIAYISSSRKHDSIKDDSEDLKPVIDGMDGIKISQGLGLQDFDLIRVIGRGSYAKVLLVRLKKNDQIYAMKVVKKELVHDDEDIDWVQTEKHVFEQASSNPFLVGLHSCFQTTSRLFLVIEYVNGGDLMFHMQRQRKLPEEHARFYAAEICIALNFLHERGIIYRDLKLDNVLLDADGHIKLTDYGMCKEGLGPGDTTSTFCGTPNYIAPEILRGEEYGFSVDWWALGVLMFEMMAGRSPFDIITDNPDMNTEDYLFQVILEKPIRIPRFLSVKASHVLKGFLNKDPKERLGCRPQTGFSDIKSHAFFRSIDWDLLEKKQALPPFQPQITDDYGLDNFDTQFTSEPVQLTPDDEDAIKRIDQSEFEGFEYINPLLLSTEESV

binding result [2]: no binding
B2: purified recombinant His-PKM2 (wild type) (enzyme)
chain: not shown
notes: Expressed in bacteria and purified; unphosphorylated; also called WT PKM2; WT His-PKM2

binding result (endogenous Bub1): no binding
B3: endogenous PKM1 (enzyme)
chain: not shown
notes: Looked for in Bub3-Bub1 immunoprecipitates
